{"source": "paper PMC11970713", "about": "(The FEBS journal, 2024)", "target": "the molecule itself", "assay": "native gel or EMSA"}
{"protein": "Full length wild-type LpCopA (copper-transporting P1B-1-ATPase from Legionella pneumophila, Lpg1024) (natural protein) not shown", "values": [{"measurement": "stoichiometry N", "result": 2}]}
